Data as given in US20230416347A1 (UNIVERSITY OF TENNESSEE RESEARCH FOUNDATION, published 2023).
Each block holds one binder with its values, some of them ahead of it.

What was measured:
[1] = molecular target: T1, rVλ6Wil fibrils; experiment: plate assay, time-resolved fluorescence (anti-human Fc, streptavidin-europium), 4PL fit
T1 construct: domain: λ6 variable domain; Synthetic amyloid-like fibrils; also called rVλWIL; rVλ6Wil synthetic fibrils
Experimental: (§1) The antibody-peptide conjugate was added to the wells in 2-fold serial dilution starting at 100 nM. For wells containing rVλ6WIL, the antibody-peptide conjugate was added to the wells in 2-fold serial dilution starting at 5 nM.

[2] = molecular target: T2, SHI ALλ liver extract; experiment: as above
T2 construct: Human AL amyloid extract; also called ALλ (SHI); ALλ SHI extract
Experimental: as §1

[3] = molecular target: T3, KEN hATTR extract (human, UniProt P02766 21-147); experiment: as above
Experimental: as §1

[4] = molecular target: T4, Per125 wtATTR extract (human, UniProt P02766 21-147); experiment: as above
Experimental: as §1

[5] = molecular target: T5, ALλ (GRA) amyloid extract; experiment: as above
T5 construct: also called ALκ(GRA) amyloid extract
Experimental: as §1

[6] = molecular target: T6, ALλ (BAL) amyloid extract; experiment: as above
T6 construct: Human AL amyloid extract; also called human AL (BAL) amyloid extract
Experimental: as §1

[7] = molecular target: T7, TAL ALκ liver extract; experiment: as above
T7 construct: Human AL amyloid extract; also called ALκ (TAL); ALκ TAL
Experimental: as §1

[8] = molecular target: α-synuclein synthetic amyloid-like fibrils (UniProt P37840 1-140); experiment: as above
Experimental: (§2) The mean and standard deviation (SD) of three replicates were calculated and the potency (EC50) was determined following fitting with a sigmoidal four parameter logistic (4PL) equation with logarithmic x-axis (Prism) (FIG. 14). A non-reactive hIgG1 was used as a negative control in a parallel assay (FIG. 13B).

[9] = molecular target: Tau 441 synthetic amyloid-like fibrils (UniProt P10636-8 1-441); experiment: as above
Experimental: as §2

[10] = molecular target: T1, rVλ6Wil fibrils; experiment: EuLISA on rVλ6Wil fibrils (FIG. 5A)
[11] = molecular target: T1, rVλ6Wil fibrils; experiment: EuLISA on rVλ6Wil fibrils; plot with two y axes
[12] = molecular target: T8, CAB ALκ4; experiment: pulldown assay
T8 construct: AL amyloid substrate of the pulldown assay

[13] = molecular target: T9, TYL ALλ extract; experiment: pulldown assay
T9 construct: Human AL amyloid extract; also called ALλ TYL extract

[14] = molecular target: T1, rVλ6Wil fibrils; experiment: pulldown assay
[15] = molecular target: T2, SHI ALλ liver extract; experiment: pulldown assay
[16] = molecular target: T3, KEN hATTR extract; experiment: pulldown assay
[17] = molecular target: SNO hATTR extract (human, UniProt P02766 21-147); experiment: pulldown assay
[18] = molecular target: T4, Per125 wtATTR extract; experiment: pulldown assay
[19] = molecular target: T10, HIG ALκ1 extract; experiment: pulldown assay
T10 construct: Human AL amyloid extract; also called ALκ HIG extract

[20] = molecular target: Per253 wild type (wt) ATTR extract (human, UniProt P02766 21-147); experiment: pulldown assay
[21] = molecular target: T7, TAL ALκ liver extract; experiment: pulldown assay
[22] = molecular target: T11, Len(1-22) monomer peptide (Homo sapiens (Human), UniProt P06312 21-42); experiment: SPR, antibody as ligand, peptide as analyte
T11 construct: Analyte in SPR; on beads in the pulldown assay; also called Vκ4(LEN(1-22) beads)
T11 peptide: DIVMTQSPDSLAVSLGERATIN

[23] = molecular target: T1, rVλ6Wil fibrils; experiment: EuLISA on rVλ6Wil fibrils (FIG. 5B)
[24] = molecular target: T1, rVλ6Wil fibrils; experiment: EuLISA
[25] = molecular target: T2, SHI ALλ liver extract; experiment: EuLISA
[26] = molecular target: T4, Per125 wtATTR extract; experiment: EuLISA
[27] = molecular target: T7, TAL ALκ liver extract; experiment: EuLISA
Throughout, for Max: unit not given here.

Chain of Tau 441 synthetic amyloid-like fibrils (P10636 other isoform, or with tags, fused parts or gaps limits assumed): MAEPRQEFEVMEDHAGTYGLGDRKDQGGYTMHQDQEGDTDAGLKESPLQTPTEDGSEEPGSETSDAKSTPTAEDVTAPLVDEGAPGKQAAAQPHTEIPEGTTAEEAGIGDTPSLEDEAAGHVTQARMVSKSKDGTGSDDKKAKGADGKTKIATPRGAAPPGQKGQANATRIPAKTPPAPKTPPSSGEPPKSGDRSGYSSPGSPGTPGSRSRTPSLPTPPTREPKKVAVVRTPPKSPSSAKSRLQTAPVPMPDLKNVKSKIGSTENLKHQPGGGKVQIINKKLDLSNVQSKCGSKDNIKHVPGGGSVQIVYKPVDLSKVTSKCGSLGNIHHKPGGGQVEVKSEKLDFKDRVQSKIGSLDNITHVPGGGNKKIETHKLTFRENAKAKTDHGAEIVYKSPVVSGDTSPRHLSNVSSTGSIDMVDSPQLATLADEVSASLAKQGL

B1: PF.1 (VH9-D54E/VL4-N33S-p5R with VSPSV spacer, perfusion 1) (antibody, human IgG1, kappa)
heavy: not shown
light: DVVMTQSPLSLPVTLGQPASISCRSSQSLVHRSGNTYLHWFQQRPGQSPRLLIYKVSNRFSGVPDRFSGSGSGTDFTLKISRVEAEDVGVYFCFQTTYVPNTFGGGTKLEIKRTVAAPSVFIFPPSDEQLKSGTASVVCLLNNFYPREAKVQWKVDNALQSGNSQESVTEQDSKDSTYSLSSTLTLSKADYEKHKVYACEVTHQGLSSPVTKSFNRGECVSPSVRAQRAQARQARQAQRAQRAQARQARQ
notes: Antibody-peptide fusion, p5R on the light chain through VSPSV; perfusion culture 1 day, cation exchange, over 99% intact; also called VH9-D54E/VL4-N33S-VSPSV-p5R
EC50 [1]: 0.15 nM
EC50 [2]: 0.32 nM
EC50 [3]: 0.45 nM
EC50 [4]: 0.18 nM
EC50 [5]: 0.6 nM
EC50 [6]: 0.36 nM
EC50 [7]: 0.4 nM

B2: PF.7 (VH9-D54E/VL4-N33S-VSPSV-p5R collected after 7 days of perfusion culturing) (antibody, human IgG1, kappa)
heavy: not shown
light: DVVMTQSPLSLPVTLGQPASISCRSSQSLVHRSGNTYLHWFQQRPGQSPRLLIYKVSNRFSGVPDRFSGSGSGTDFTLKISRVEAEDVGVYFCFQTTYVPNTFGGGTKLEIKRTVAAPSVFIFPPSDEQLKSGTASVVCLLNNFYPREAKVQWKVDNALQSGNSQESVTEQDSKDSTYSLSSTLTLSKADYEKHKVYACEVTHQGLSSPVTKSFNRGECVSPSVRAQRAQARQARQAQRAQRAQARQARQ
notes: Same construct as PF.1, perfusion culture for 7 days
EC50 [8]: 127 nM
EC50 [9]: 1300 nM

More lines, now with the values ahead:

EC50 [10]: 7 nM
EC50 (read off the curve) [11]: ~7 nM
percent bound [12]: 2.43%
percent bound [13]: 0.56%
percent bound [14]: 10.4%
percent bound [15]: 0.68%
percent bound [16]: 0.61%
percent bound [17]: 0.41%
percent bound [18]: 1.36%
percent bound [19]: 0.19%
percent bound [20]: 0.8%
percent bound [21]: 0.72%
Kd [22]: 43 nM
koff [22]: 0.0026 s⁻¹
kon [22]: 60400 M⁻¹ s⁻¹
B3: VH9/VL4 (antibody, V domains shown)
VH: QVQLQESGPGLVKPSETLSLTCTVSGFSLSSYGVSWIRQPPGKGLEWLGVIWGDGSTNYHPNLMSRVTISVDTSKSQVLFKLSSVTAADTAVYYCATLDYWGQGTSVTVSS
VL: DVVMTQSPLSLPVTLGQPASISCRSSQSLVHRNGNTYLHWFQQRPGQSPRLLIYKVSNRFSGVPDRFSGSGSGTDFTLKISRVEAEDVGVYFCFQTTYVPNTFGGGTKLEIK
notes: Humanized 11-1F4; also called VH9/VL4 parent

EC50 [10]: ~72 nM
EC50 [23]: ~100 nM
EC50 [24]: 291 nM
LogEC50 [24]: 6.54 -log(M)
Max [24]: 63.9
EC50 [25]: 256 nM
LogEC50 [25]: 6.59 -log(M)
Max [25]: 51.3
EC50 [26]: 381 nM
LogEC50 [26]: 6.42 -log(M)
Max [26]: 71.1
LogEC50 [27]: ~0.599 -log(M)
Max [27]: ~17800
B4: chimeric antibody c11-1F4 (antibody, V domains shown)
VH: QVQLKESGPGLVAPSQSLSITCTVSGFSLSSYGVSWVRQPPGKGLEWLGVIWGDGSTNYHPNLMSRLSISKDISKSQVLFKLNSLQTDDTATYYCVTLDYWGQGTSVTVSS
VL: DVVMTQTPLSLPVSLGDQASISCRSSQSLVHRNGNTYLHWYLQKPGQSPKLLIYKVSNRFSGVPDRFSGSGSGTDFTLKISRVEAEDLGLYFCFQTTYVPNTFGGGTKLEIK
notes: Chimeric form of 11-1F4; also called ch11-1F4; chimeric (c) 11-1F4
